Patent US12630620 (dated 2026)
Like-named read-outs stand apart in the source and are kept apart here. Values belong to the binder of their own block, whether it stands above or below them.

Assays:
[1] = molecular target: T1, commercial GDF15 recombinant protein (R&D, 9279-GD) (UniProt Q99988 197-308); experiment: SPR
T1 chain: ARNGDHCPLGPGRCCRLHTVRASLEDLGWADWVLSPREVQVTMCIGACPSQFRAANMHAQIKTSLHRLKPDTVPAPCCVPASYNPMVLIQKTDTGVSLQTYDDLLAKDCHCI

[2] = molecular target: T1, commercial GDF15 recombinant protein …; experiment: SPR

Kd [1]: 572 nM
B1: anti-GDF15 neutralizing monoclonal antibody G2 (antibody, V domains shown)
VH: QVQLQQSGAELARPGASVKLSCKASGYTFTDYYINWVKQRTGQGLEWIGEIYPGSGNTYYNEKFKGKATLTADKSSSTAYMQLSSLTSEDSAVYFCARVRALLRPLAMDYWGQGTSVTVSS
VL: QIVLSQSPAILSASPGEKVTMTCRASSSVSYMHWYQQKPGSSPKPWIYATSNLASGVPARFSGSGSGTSYSLTISRVEAEDAATYYCQQWSSNPPFTFGSGTKLEIK

Kd [2]: 71.4 nM
B2: anti-GDF15 neutralizing monoclonal antibody G1 (antibody, V domains shown)
VH: DVQLQESGPGLVKPSQSLSLTCTVTGYSITSAYAWNWIRQFPGNKLEWMGYISYSGSTSYNPSLKSRISITRDTSKNQFFLQFNSVTTEDTATYYCARGGDAEDYWGQGTTLTVSS
VL: DIQMTQSPASLSVSVGETVTITCRASENIYSNLAWFQQKQGKSPQLLVYVATNLVDGVPSRFSGSGSGTQYSLKINSLQSEDFGTYYCQHFWGTPWTFGGGTKLEIK
